What all share (assay): cleavage_in_vitro
Series [1] addresses T1, BamHI-HF E163A/E167T (Bacillus amyloliquefaciens) (UniProt P23940).
T1 sequence: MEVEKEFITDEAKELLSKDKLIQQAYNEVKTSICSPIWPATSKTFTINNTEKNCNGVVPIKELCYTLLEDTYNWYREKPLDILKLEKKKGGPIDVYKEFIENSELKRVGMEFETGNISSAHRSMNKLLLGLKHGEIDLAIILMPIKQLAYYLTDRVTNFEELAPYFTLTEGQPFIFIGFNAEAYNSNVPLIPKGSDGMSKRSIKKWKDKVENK
The following applies: NEB4, 10 mM Mg acetate, 37 C.

A further series deals with BsmBI. The following applies: NEB3, 10 mM MgCl2, 55 C.
For series [2], the target named is T2, HindIII (Haemophilus influenzae Rd) (UniProt P43870).
T2 sequence: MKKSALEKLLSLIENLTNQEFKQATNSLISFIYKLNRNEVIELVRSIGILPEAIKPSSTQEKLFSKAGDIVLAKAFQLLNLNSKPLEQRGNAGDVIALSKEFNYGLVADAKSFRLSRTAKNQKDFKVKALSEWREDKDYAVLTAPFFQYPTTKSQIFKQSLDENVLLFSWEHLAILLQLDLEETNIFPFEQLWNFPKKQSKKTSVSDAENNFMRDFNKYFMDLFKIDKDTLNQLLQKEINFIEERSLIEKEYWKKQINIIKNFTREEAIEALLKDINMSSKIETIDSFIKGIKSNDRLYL
The following applies: NEB2, 10 mM MgCl2, 37 C.

Regarding lambda DNA, the activity (fidelity index) is greater than 4000 in series [1], 120 in the series with BsmBI and 250 in series [2].

Values taken from patent US20130115676.
